Experimental data: patent publication US20200385745

Molecular target: keratin (substrate of the keratinase activity assay)

B1: keratinase derived from Brevibacillus parabrevis (CGMCC No. 10798), parent keratinase (protein)
chain: AQTVPYGIPQIKAPAVHAQGYKGANVKVAVLDTGIHAAHPDLNVAGGASFVPSEPNATQDFQSHGTHVAGTIAALDNTIGVLGVAPSASLYAVKVLDRYGDGQYSWIISGIEWAVANNMDVINMSLGGPSGSTALKNTVDTANNRGVVVVAAAGNSGSSGSSSTVGYPAKYDSTIAVANVNSNNVRNSSSSAGPELDVSAPGTSILSTVPSSGYTSYTGTSMASPHVAGAAALILSKNPNLTNSQVRQRLENTATPLGDSFYYGKGLINVQAASN
  Km: 2100 µM

B2: keratinase mutant N181D (protein)
chain: AQTVPYGIPQIKAPAVHAQGYKGANVKVAVLDTGIHAAHPDLNVAGGASFVPSEPNATQDFQSHGTHVAGTIAALDNTIGVLGVAPSASLYAVKVLDRYGDGQYSWIISGIEWAVANNMDVINMSLGGPSGSTALKNTVDTANNRGVVVVAAAGNSGSSGSSSTVGYPAKYDSTIAVANVDSNNVRNSSSSAGPELDVSAPGTSILSTVPSSGYTSYTGTSMASPHVAGAAALILSKNPNLTNSQVRQRLENTATPLGDSFYYGKGLINVQAASN
  Km: 1900 µM

B3: keratinase mutant T218S (protein)
chain: AQTVPYGIPQIKAPAVHAQGYKGANVKVAVLDTGIHAAHPDLNVAGGASFVPSEPNATQDFQSHGTHVAGTIAALDNTIGVLGVAPSASLYAVKVLDRYGDGQYSWIISGIEWAVANNMDVINMSLGGPSGSTALKNTVDTANNRGVVVVAAAGNSGSSGSSSTVGYPAKYDSTIAVANVNSNNVRNSSSSAGPELDVSAPGTSILSTVPSSGYTSSTGTSMASPHVAGAAALILSKNPNLTNSQVRQRLENTATPLGDSFYYGKGLINVQAASN
  Km: 1500 µM

B4: keratinase mutant S236C (protein)
chain: AQTVPYGIPQIKAPAVHAQGYKGANVKVAVLDTGIHAAHPDLNVAGGASFVPSEPNATQDFQSHGTHVAGTIAALDNTIGVLGVAPSASLYAVKVLDRYGDGQYSWIISGIEWAVANNMDVINMSLGGPSGSTALKNTVDTANNRGVVVVAAAGNSGSSGSSSTVGYPAKYDSTIAVANVNSNNVRNSSSSAGPELDVSAPGTSILSTVPSSGYTSYTGTSMASPHVAGAAALILCKNPNLTNSQVRQRLENTATPLGDSFYYGKGLINVQAASN
  Km: 2200 µM

B5: keratinase double mutant N181D-T218S (protein)
chain: AQTVPYGIPQIKAPAVHAQGYKGANVKVAVLDTGIHAAHPDLNVAGGASFVPSEPNATQDFQSHGTHVAGTIAALDNTIGVLGVAPSASLYAVKVLDRYGDGQYSWIISGIEWAVANNMDVINMSLGGPSGSTALKNTVDTANNRGVVVVAAAGNSGSSGSSSTVGYPAKYDSTIAVANVDSNNVRNSSSSAGPELDVSAPGTSILSTVPSSGYTSYSGTSMASPHVAGAAALILSKNPNLTNSQVRQRLENTATPLGDSFYYGKGLINVQAASN
  Km: 1800 µM
